Numbering of substitutions follows the chain as printed.
What was measured:
Assay in all cases: EMSA
Details in all cases: 8-oxo-7,8-dihydroguanosine at positions 3,7,11,15,19,23
[1] = target: T1, PNPase NFH S76N;F78H (Escherichia coli K12) (UniProt P05055)
T1 sequence: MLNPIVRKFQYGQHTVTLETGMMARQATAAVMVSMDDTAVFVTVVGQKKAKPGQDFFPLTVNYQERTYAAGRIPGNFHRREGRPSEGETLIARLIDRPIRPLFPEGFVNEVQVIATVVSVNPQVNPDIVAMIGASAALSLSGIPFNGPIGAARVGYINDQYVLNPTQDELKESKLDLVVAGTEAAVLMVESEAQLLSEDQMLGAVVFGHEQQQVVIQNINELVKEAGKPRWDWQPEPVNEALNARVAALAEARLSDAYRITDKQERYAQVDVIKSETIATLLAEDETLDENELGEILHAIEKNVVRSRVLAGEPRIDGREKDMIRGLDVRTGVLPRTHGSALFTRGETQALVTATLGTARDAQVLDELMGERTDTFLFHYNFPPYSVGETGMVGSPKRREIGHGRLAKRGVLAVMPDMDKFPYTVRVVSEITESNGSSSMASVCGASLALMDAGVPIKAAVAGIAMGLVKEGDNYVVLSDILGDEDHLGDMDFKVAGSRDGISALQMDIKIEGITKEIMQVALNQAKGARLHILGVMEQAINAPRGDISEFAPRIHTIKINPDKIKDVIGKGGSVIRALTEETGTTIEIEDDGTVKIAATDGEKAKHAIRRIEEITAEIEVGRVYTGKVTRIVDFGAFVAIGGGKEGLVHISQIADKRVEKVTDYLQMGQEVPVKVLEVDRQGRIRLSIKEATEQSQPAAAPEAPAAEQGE

[2] = target: T2, PNPase wild type (SFF) (Escherichia coli K12) (UniProt P05055)
T2 sequence: T1 sequence with N76S, H78F

[3] = target: T3, PNPase NYM S76N;F77Y;F78M (Escherichia coli K12) (UniProt P05055)
T3 sequence: T1 sequence with F77Y, H78M

[4] = target: T4, PNPase GFT S76G;F78T (Escherichia coli K12) (UniProt P05055)
T4 sequence: T1 sequence with N76G, H78T

Sequence: NNGNNNGNNNGNNNGNNNGNNNGN [8-oxoG RNA 24-mer [NN(8-oxoG)N]6]
- binding signal (Kd ratio unmodified/8-oxoG (selectivity)) [1]: 2.5
- binding signal (Kd ratio unmodified/8-oxoG (selectivity)) [2]: 1.8
- binding signal (Kd ratio unmodified/8-oxoG (selectivity)) [3]: 2.8
- binding signal (Kd ratio unmodified/8-oxoG (selectivity)) [4]: 2.3

— publication PMC6965710
